From PMC5464963 (Cell Reports, 2017)

T1: BMP9 as used in biolayer interferometry (human) (UniProt Q9UK05)
T1 sequence (Q9UK05 320-429, looked up): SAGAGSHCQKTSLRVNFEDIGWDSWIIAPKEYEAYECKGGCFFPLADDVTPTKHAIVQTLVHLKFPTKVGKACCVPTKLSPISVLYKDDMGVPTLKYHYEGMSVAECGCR

B1: unfused (non-mMBP fused) wild-type OR, ENG E26-S337 (domain or fragment)
chain: ETVHCDLQPVGPERGEVTYTTSQVSKGCVAQAPNAILEVHVLFLEFPTGPSQLELTLQASKQNGTWPREVLLVLSVNSSVFLHLQALGIPLHLAYNSSLVTFQEPPGVNTTELPSFPKTQILEWAAERGPITSAAELNDPQSILLRLGQAQGSLSFCMLEASQDMGRTLEWRPRTPALVRGCHLEGVAGHKEAHILRVLPGHSAGPRTVTVKVELSCAPGDLDAVLILQGPPYVSWLIDANHNMQIWTTGEYSFKIFPEKNIRGFKLPDTPQGLLGEARMLNASIVASFVELPLASIVSLHASSCGGRLQTS
B2: ^MOR as used in biolayer interferometry (domain or fragment)
chain: B1 chain
B3: full-length ectodomain of ENG (ECTO) as used in biolayer interferometry (receptor)
chain: ETVHCDLQPVGPERGEVTYTTSQVSKGCVAQAPNAILEVHVLFLEFPTGPSQLELTLQASKQNGTWPREVLLVLSVNSSVFLHLQALGIPLHLAYNSSLVTFQEPPGVNTTELPSFPKTQILEWAAERGPITSAAELNDPQSILLRLGQAQGSLSFCMLEASQDMGRTLEWRPRTPALVRGCHLEGVAGHKEAHILRVLPGHSAGPRTVTVKVELSCAPGDLDAVLILQGPPYVSWLIDANHNMQIWTTGEYSFKIFPEKNIRGFKLPDTPQGLLGEARMLNASIVASFVELPLASIVSLHASSCGGRLQTSPAPIQTTPPKDTCSPELLMSLIQTKCADDAMTLVLKKELVAHLKCTITGLTFWDPSCEAEDRGDKFVLRSAYSSCGMQVSASMISNEAVVNILSSSSPQRKKVHCLNMDSLSFQLGLYLSPHFLQASNTIEPGQQSFVQVRVSPSVSEFLLQLDSCHLDLGPEGGTVELIQGRAAKGNCVSLLSPSPEGDPRFSFLLHFYTVPIPKTGTLSCTVALRPKTGSQDQEVHRTVFMRLNIISPDLSGCTSKG
B4: His-^MECTO (His-tagged, mMBP-fused ENG ectodomain) (receptor, human, UniProt P17813 26-586, looked up)
chain: B3 chain
B5: ECTO-Myc (Myc-tagged ENG ectodomain) (receptor, human, UniProt P17813 26-586, looked up)
chain: B3 chain
B6: His-ECTO (His-tagged ENG ectodomain) of the purified His-ECTO-BMP9 complex (receptor, human, UniProt P17813 26-586, looked up)
chain: B3 chain
B7: ^MZP (mMBP-fused ENG P338-G581, zona pellucida module) (domain or fragment, human, UniProt P17813 338-581, looked up)
chain: PAPIQTTPPKDTCSPELLMSLIQTKCADDAMTLVLKKELVAHLKCTITGLTFWDPSCEAEDRGDKFVLRSAYSSCGMQVSASMISNEAVVNILSSSSPQRKKVHCLNMDSLSFQLGLYLSPHFLQASNTIEPGQQSFVQVRVSPSVSEFLLQLDSCHLDLGPEGGTVELIQGRAAKGNCVSLLSPSPEGDPRFSFLLHFYTVPIPKTGTLSCTVALRPKTGSQDQEVHRTVFMRLNIISPDLSG
B8: bone morphogenetic protein 9 (BMP9), mature homodimer, untagged, expressed in HEK293 cells (ligand, human, UniProt Q9UK05 320-429, looked up)
chain: T1 sequence (Q9UK05 320-429, looked up)

Assays:
[1] = molecular target: T1, BMP9 as used in biolayer interferometry (human); test: BLI
[2] = molecular target: the molecule itself; test: non-reducing SDS-PAGE and immunoblot
SEC-MALS = molecular target: the molecule itself; test: SEC-MALS
[3] = molecular target: B6; test: SEC-MALS

Binder | Kd [1] [nM] | koff [1] [s⁻¹] | kon [1] [M⁻¹ s⁻¹] | stoichiometry N [2] | further results
B1 | 295 | 0.0871 | 295000 |  | 
B2 | 179 | 0.0622 | 349000 |  | 
B3 | 9.81 | 0.00198 | 200000 |  | 
B4 |  |  |  | 2 | 
B5 |  |  |  | 2 | 
B6 |  |  |  |  | stoichiometry N (SEC-MALS): 2
B7 |  |  |  | 2 | 
B8 |  |  |  |  | stoichiometry N [3]: 1 2:2 (ENG chains : BMP9 chains)
